{"source": "paper PMC12249877", "about": "“AlphaFold 3-Assisted Deciphering of the DNA Recognition by DREB1 Transcription Factors in Rice”", "binders": {"B1": {"name": "CRT (dsDNA)", "DNA 1": "GTACGCCGACACT", "DNA 2": "AGTGTCGGCGTAC"}}, "key": {"[1]": {"biological_target": "OsDREB1A-DBD V64A (Oryza sativa (rice), UniProt Q64MA1 32-103, V64A)", "sequence (Q64MA1 32-103 V64A)": "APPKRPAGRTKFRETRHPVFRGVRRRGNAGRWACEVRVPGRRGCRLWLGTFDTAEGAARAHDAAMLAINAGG", "assay": "EMSA; 0.6 uM protein; EMSA: 0.01 uM FAM-dsDNA, 50 mM NaH2PO4, 150 mM NaCl, 5 mM DTT, 2% glycerol, pH 6.8, 15 min, room temperature; 12% native PAGE in 0.5x TBE", "details": "protein: recombinant; tags: C-terminal His-tag (pET28); blunt"}, "[2]": {"biological_target": "OsDREB1A-DBD F43G (Oryza sativa (rice), UniProt Q64MA1 32-103, F43G)", "sequence (Q64MA1 32-103 F43G)": "as the sequence (Q64MA1 32-103 V64A) above, with F12G, A33V counted along it", "assay": "EMSA; 0.6 uM protein; EMSA: 0.01 uM FAM-dsDNA, 50 mM NaH2PO4, 150 mM NaCl, 5 mM DTT, 2% glycerol, pH 6.8, 15 min, room temperature; 12% native PAGE in 0.5x TBE", "details": "protein: recombinant; tags: C-terminal His-tag (pET28); blunt"}}}
{"binder": "B1", "values": [{"measurement": "binding result", "setting": "[1]", "result": "binds"}, {"measurement": "binding result", "setting": "[2]", "result": "binds"}]}
